# Assay results from the nanobody polyreactivity screen of Harvey et al. (2022).
# Test: yeast display, Sf9 membrane polyspecificity reagent, FACS + sequencing; frameworks hold sequencing errors
# Procedure, shortened: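 A synthetic nanobody library was expressed on Saccharomyces cerevisiae BJ5465 by galactose induction for 36–48 hours. The library was stained for 1 hour at 4 °C with 10% biotinylated, detergent-solubilized Sf9 membrane reagent and enriched with streptavidin microbeads before FACS. Low and high (top ~1%) gates were set on anti-HA fluorescence for expression and streptavidin fluorescence for reagent binding, and each polyreactivity label reflects the gate of origin.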
sequence,measurement,value
QVQLVESGGGLVQAGGSPRLSCAASGSTFVPYDMGWYRQAPAKERELVAAISRGGSTYYADSVKGRFTISRDNAKNTFYLQMNSLKPEDTAVYYCDARARICTVDYWVQGTQVTVSS,polyreactivity (PSR sort gate),high polyreactivity
QVQLVESGGGLVQAGGSQRLSCDSSGSTFRYYAMGWYRPAPGKQRELVAVITWNGGGTYYADSMKGRFTISRDNAKNNVYLHMNSLKPVDTAVYYCAADASLYTDEYDNWGLGTQVTVSS,polyreactivity (PSR sort gate),low polyreactivity
QVQLVESGGGLVQAGGSRLSCAASGRIFPVYAMGWYIQAPGKERELVAGINSSGDNTYYADSVKGRFTISRDNAKNTVYLQMNSLKPEDTAVYYCAAYYPYYVPYGFDYCGQGTQVTVSS,polyreactivity (PSR sort gate),low polyreactivity
QVQLVESGGGLVQAGGSRPLSCAASGFIFDSNAMGWYRQAPGKGTDLVAAISWSGTSTFYADSVKGRFTISRDNAKNTVYLQMNSLNPEDTAVYYCAAKYGRRGFNRYGYWGQGTQVTVSS,polyreactivity (PSR sort gate),high polyreactivity
QVQLVESGGGLVQAGGSRRLSCAAAGIIFYAYAMGWYRQAPGKEREFVARISRGGSTNYADSVKGRFTLSRDNAKNTVYLQMNSLKPEDTAVYYCAAYYAYLRYGGLYEYWGQGTQVTVSS,polyreactivity (PSR sort gate),high polyreactivity
QVQLVESGGGLVQAGGSRRLSCAASGFTFHYYAMGWYRQAPGKERELVAVITSGGSTTYADSVKGRFTISRDNAKNTVYLQMNSLKPEDTAVYYCATDNPFLWWFRPDQHGMGYWGQGTQVTVSS,polyreactivity (PSR sort gate),low polyreactivity
QVQLVESGGGLVQAGGSRRLSCAASGRFFSAYAMGWYRQAPGKDRELVAAITWSGANTDYADSVKGRFTISRDNANNTVYLQMNSLKPEDTAVYYCNASVGRDSAYDYWGQGTQVTVSS,polyreactivity (PSR sort gate),low polyreactivity
QVQLVESGGGLVQAGGSRRLSCAASGRIFGWYAMGWYRQAPGKERELVAAISRGGTRTNYADSVKGRFTISRDNAKNTGYLKMNSLKPEDTAVYYCASESFYSQFDYWGQGSQVTVSS,polyreactivity (PSR sort gate),high polyreactivity
QVQLVESGGGLVQAGGSRRLSCAASGRTFDFYAMGWYRQAPGKERELVAAITGADTSTYYADSVKGRFTISRDNAMNTDYLQMNSLKPEDTAVYYCASDGQWAYTVDPYVIYYRLDYWGQGTQVTVSS,polyreactivity (PSR sort gate),low polyreactivity
QVQLVESGGGLVQAGGSRRLSCAASGRTFFYNAMGWYRQAPGKERELLAAISYSGGSTYYADSVKGRFTISRDNAKNTVYLQMNSLKPEDTAVYYCAARDKTRSVRRTGMDYWGQGTQVTVSS,polyreactivity (PSR sort gate),high polyreactivity
QVQLVESGGGLVQAGGSRRLSCAASGRTFQYYAMGCYRQATGKERELVAAINNSGGSTYYSDSVKGRFTISRDNAKNTFYLQMNSLKQEDTAVYYCAAVSYRRHFGPYNYWGQGTQVTVSS,polyreactivity (PSR sort gate),low polyreactivity
QVQLVESGGGLVQAGGSRRLSCAASGRTSTYYAMGWYRQAPGKERELVAVITRGGSTYYADSVKGRFTISRDNAKNTVYLQMNSLKPEDTAVSYCNADGRVQRKYDYWGQGTQVTVSS,polyreactivity (PSR sort gate),high polyreactivity
QVQLVESGGGLVQAGGSRRLSCAASGSTFDFYVMGWYRQAPGKERELVAAIRWSGGSTYYADSVKGRFTISRDNAKNTVDLPMTRLKPEDTAVDYCPADGDHYGYSYYYGYGYWGQGTQVTVSS,polyreactivity (PSR sort gate),high polyreactivity
QVQLVESGGGLVQAGGSRRLSCAASGSTFRGNAMGWYRQAPGKERELVAASTWSGDDTYYADSVKGRFTISRDNAKNTVYLQMNSLKPEDTPVSYCAADLAAFTLAVADTYDYWGQGTQVTVSS,polyreactivity (PSR sort gate),low polyreactivity
QVQLVESGGGLVQAGGSRRLSCAASGSTFRGNARGRYRQAPGKERELVAAITWSGDDTYYADSVKGRFTISRDNAKNTVYIQMNSLKPEDTAVYYCAADVQPDTRSTPEMDYWGQGTQVTVSS,polyreactivity (PSR sort gate),low polyreactivity
QVQLVESGGGLVQAGGSRRLSCAGSGSTVTGYAMGWYRQAPGKDRELVAAISSRGGSTYYADSVKGRFTISRDNAKTTVYLQMNSLKPEDTAGYYCATSYKSEQYHGKPFYYWGQGTQVTVSS,polyreactivity (PSR sort gate),high polyreactivity
QVQLVESGGGLVQAGGSRSLSCAASGRTFTLNVMGWYRQAPGKERELVAAISTSSGRTYYADSVKGRFTISRDNAKNTVYLQMNSLKPEDTAVYYCNAVAHRQAQGDWGQGTQVTVSS,polyreactivity (PSR sort gate),low polyreactivity
QVQLVESGGGLVQAGGSVRLSCAASGRIFRYYALGWYRQAPGQEREWVAGITRGGTTNYADSVKGRFTISRDNATNTVSLQMNSLKPEDTAVYYCAADTRRGIIGYDYWGQGTQVTVSS,polyreactivity (PSR sort gate),high polyreactivity
QVQLVESGGGLVQAGGSVRLSCAASGSICFYAMGWYRQAPGKERELVAAISWRGGSTYYADSVKGRFTISRDNAKNTVYLQMNSLKPEDTAVYYCAKATRRYDVYTYGYWGQGTQVTVSS,polyreactivity (PSR sort gate),high polyreactivity
QVQLVESGGGLVQAGGTLPLSCAATGSILGYYAMGWYRHAPGKERELVAITSGDSTYYADSVKGRFTISRDNAKNTVYLQMNSLKPEDTAVYYCAADVVRGSRYNRYGYWGQGTQVTVSS,polyreactivity (PSR sort gate),high polyreactivity
QVQLVESGGGLVQAGGTLRISCAASGRTFGIYAMGWSRQAPGKERELVAAITGRGGSTHYADSVKGRFTISRDNAKNTVYLQMNSLQPEDTAVYYCAADYRYNRGITSNKDYEYWGQGTQVSVSS,polyreactivity (PSR sort gate),low polyreactivity
QVQLVESGGGLVQAGGTLRLSCAASGFIFGPNAMGWYRQAPGKERELVAAISWIGSSTYYADSVKGRFTISRDNAKNTVYLEMNSLKPEDTAVYYCNADLWVPSYLWGDYWGQGTQVTVSS,polyreactivity (PSR sort gate),low polyreactivity
QVQLVESGGGLVQAGGTLRLSCAASGFTFGFKAMGWYRQAPGKEREFVASITYRGGSTYYADSVKGRFTISRDNAKNSVYLQMNSLKPEDTAVYFCATVSTRLRDYWGQGTQVTVSS,polyreactivity (PSR sort gate),high polyreactivity
QVQLVESGGGLVQAGGTLRLSCAASGFTFNYYAMGWYRQAPGKERELFAAISSRGTGTYYADSVKGRFTISRDNAKNTVYFQMNSLKPEDTAVYYCAADWFTWSWQETRYGYWGQGTQVTVSS,polyreactivity (PSR sort gate),high polyreactivity
QVQLVESGGGLVQAGGTLRLSCAASGFTYKYYGMGWYRQAPGKERELVAAITSSGSTYYADSVKGRFTISRDNAKNTVYLQMNSLKPEDTAVYYCAAEGQRWQRWRYNYWGQGTQVTVSS,polyreactivity (PSR sort gate),high polyreactivity
QVQLVESGGGLVQAGGTLRLSCAASGGTFKVNAMGWYRQAPGKERELVASITGRGGSTYYADSVKGRFTISRDNAKNTVYLQMNSLKPEDTAVYYCAAAWRLGHLRFNSWGQGTQVTVSS,polyreactivity (PSR sort gate),high polyreactivity
QVQLVESGGGLVQAGGTLRLSCAASGIIFGYYAMGCYRQAPGKERELVAAINSGGSTYYADSVKGRFTISRDNAKNTVYLQMNSLKPEDTAVYYCKAKLYSKYWGQGTQVTVSS,polyreactivity (PSR sort gate),high polyreactivity
QVQLVESGGGLVQAGGTLRLSCAASGITFYVYAMGWYRQAPGKEREFVAAINGRGGSTYYADSVKGRFTISRDNAKNTVYLQMNSLKPEDTAVFYCAAESLAIYYKYPPYDYWGQGTQVTVSS,polyreactivity (PSR sort gate),high polyreactivity
QVQLVESGGGLVQAGGTLRLSCAASGPMFTLNAMGWYRQAPGKERELVAAINRGGSTYYADSVRGRFTISRDNAKNTVYLQMNSLKPEDTAVYYCAARRRQGGHDYWGQGTQVTVSS,polyreactivity (PSR sort gate),high polyreactivity
QVQLVESGGGLVQAGGTLRLSCAASGRIFRVYAMGWYRQAPGKERELVATITRGGSTYADSVKGRFTISRDNAKNTVYLQMNSLKPEDTAVYYCAADLVLGYRYDYWGQVTQVTVSS,polyreactivity (PSR sort gate),high polyreactivity
QVQLVESGGGLVQAGGTLRLSCAASGRTFGTYAMGWYRQEPGKERELVAAIRSNAGSTYYADSVKGRFTISRDNAKNTVYLQMNSLKPEDTAVYYCAKSYPSSRRYNFWGQGTQVTVSS,polyreactivity (PSR sort gate),high polyreactivity
QVQLVESGGGLVQAGGTLRLSCAASGRTFGWYAMGWYRQAPGKERELVASITQRGGRTYYADSVKGRFTISRDNAKNTVYLQMNSLKPEDTAVYYCAAKTSPGMYYWGQGTQVTVSS,polyreactivity (PSR sort gate),high polyreactivity
QVQLVESGGGLVQAGGTLRLSCAASGRTFNGNAMGWYRQAPGKERELVAAISGGSTSYADSVKGRFTISRDNAKNTVYLQMNSLKPEDTAVYYCAATYIRRTIFRYNSWGQGTQVTVSS,polyreactivity (PSR sort gate),low polyreactivity
QVQLVESGGGLVQAGGTLRLSCAASGRTLRRYAIGWYRQAPGTERELVADNSWRGTSTNYADSVKGRFTISRDNAKNTVYLQMNSLKPEDTAVYYCAAKQTYTRLHYLGPSVWDNYDYWGQGTQVTVSS,polyreactivity (PSR sort gate),high polyreactivity
QVQLVESGGGLVQAGGTLRLSCAASGSIVVGNTMGWYRQAPGKERELVAAITWSGGRTYYADSVKGRFTISRDIAKNTVYLQMNSLKPEDTAVYYCAAPTYLRRGMDTYNLGYGYWGQGTQVTVSS,polyreactivity (PSR sort gate),high polyreactivity
QVQLVESGGGLVQAGGTLRLSCAASGSIWRYAMGWYRKAPGKERELVATIARRGGSTYYADSVKGRFTISRDNAKNTVYLLMNSLKPEDPAVYYCAAAESASSFRFDYWGQGTQVTVSS,polyreactivity (PSR sort gate),high polyreactivity
QVQLVESGGGLVQAGGTLRLSCAASGSSYFYYAMGWYRQAPRKERELVADITSGGSTDYADSVKGRFTISRDNAKNTVYVQINSVNPEDSAVYYCAADDFSGYGTEYDYWGQGTQVTVSS,polyreactivity (PSR sort gate),low polyreactivity
QVQLVESGGGLVQAGGTLRLSCAASGSTFGYNAMGWYRQAPGKERELVARITSSGGSTYYADSVKGRFTISRDNAKNTVYLQMNSLKPEDTAVYYCAAGYPYRAVYRYYYWGQGTQVTVSS,polyreactivity (PSR sort gate),high polyreactivity
QVQLVESGGGLVQAGGTLRLSCAASGSTFPGYAIGSNRQAPGKERELVAAISVSGDRTYYADSVKGRFTISRDNAKNTVYLQMNSLKPEDTAVYYCAVRTRYRSYGVWVGNYSWGQGTQVTVSS,polyreactivity (PSR sort gate),high polyreactivity
QVQLVESGGGLVQAGGTLRLSCAASGSTFYENTMGWYRQARGKERELVAAISFRGGSTYYADSVKGRFTISRDNAKKTVYLQMNSLKPEDTAVYYCAKDYYTLRLYDYWGQGTLVTVSS,polyreactivity (PSR sort gate),low polyreactivity
QVQLVESGGGLVQAGGTLRLSCAASGSTIKPYAMGWNRQAPGKERELVAVIRWRGGRTYYADSVKGRFTISRDNAKNTAYFQINSQNPADTAVYYCAAGGSQAAGGYGYYGYDYWGQGTQVTVSA,polyreactivity (PSR sort gate),low polyreactivity
QVQLVESGGGLVQAGGTLRLSCAASGYIFAWYAMGWYRQAPGKERELVATITWRGGSTYYADSVKGRFTISRDNAKNTVYLQMNSLKPEDTAVYYCNKDVTPLHYDSWGQGTQVTVSS,polyreactivity (PSR sort gate),high polyreactivity
QVQLVESGGGLVQAGGTLRLSCAASGYTLTINVMGWYRPAPGKERELVAAITSSGASTNYADSVKGRFTISRDNAKNTVYLQMNSLKPEDTAVYYCNVGNEHQSDFVVPFDYNHWGQGTQVTVSS,polyreactivity (PSR sort gate),low polyreactivity
